Assay results published in paper PMC5896931 (Molecular Biology of the Cell, 2018).
Blank lines part the entries; values can stand above or below the binder they belong to.

Key:
[1] = target: T1, Aim21 (Altered Inheritance of Mitochondria 21), full length, 6His-SUMO tag cleaved (budding yeast, UniProt P40563 1-679); test: pull-down
T1 sequence (looked up): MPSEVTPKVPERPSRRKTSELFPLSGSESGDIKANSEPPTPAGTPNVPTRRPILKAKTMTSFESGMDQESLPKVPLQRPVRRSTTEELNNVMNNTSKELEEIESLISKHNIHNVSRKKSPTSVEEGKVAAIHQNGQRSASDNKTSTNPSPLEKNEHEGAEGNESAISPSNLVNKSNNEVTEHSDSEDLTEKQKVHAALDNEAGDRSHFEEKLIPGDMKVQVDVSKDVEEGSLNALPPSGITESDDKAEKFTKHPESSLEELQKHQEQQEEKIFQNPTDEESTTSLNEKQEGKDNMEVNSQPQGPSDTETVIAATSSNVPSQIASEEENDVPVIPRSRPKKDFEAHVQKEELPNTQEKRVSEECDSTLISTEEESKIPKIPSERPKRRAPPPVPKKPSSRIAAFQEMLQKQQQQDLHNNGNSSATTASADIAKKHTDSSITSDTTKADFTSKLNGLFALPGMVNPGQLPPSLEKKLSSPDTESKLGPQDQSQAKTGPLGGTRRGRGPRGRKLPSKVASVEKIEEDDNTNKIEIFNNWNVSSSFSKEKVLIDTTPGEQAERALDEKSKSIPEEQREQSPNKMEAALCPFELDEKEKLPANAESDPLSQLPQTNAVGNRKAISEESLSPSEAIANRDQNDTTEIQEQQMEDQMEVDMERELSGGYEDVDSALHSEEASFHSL

[2] = target: T2, 6His-SUMO-Cap2 (budding yeast, UniProt P13517 1-287); test: pull-down
T2 sequence (looked up): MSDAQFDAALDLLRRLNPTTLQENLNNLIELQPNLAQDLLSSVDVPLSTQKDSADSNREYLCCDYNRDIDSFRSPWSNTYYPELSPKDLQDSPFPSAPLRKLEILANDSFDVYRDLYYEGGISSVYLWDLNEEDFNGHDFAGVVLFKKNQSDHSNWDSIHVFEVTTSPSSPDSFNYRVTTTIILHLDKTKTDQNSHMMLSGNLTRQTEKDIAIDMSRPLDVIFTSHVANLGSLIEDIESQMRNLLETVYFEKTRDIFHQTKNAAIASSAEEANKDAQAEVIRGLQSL

binding result [1]: binds
B1: 6His-SUMO-Tda2 (natural protein, budding yeast, UniProt P40045 1-126, looked up)
chain: MSMQIEIKDGRSDNSPLPERKLVTLIQESYDSLKDDNEINLSTESTSNLLIKLVLEKLEKHSSLYKYIASVTTLNIEGLNEENANFSLKNDIGASWESKKDGIFNYKLEDKNNNECYLITILWLHK

binding result [2]: binds
B2: Cap1, 6His-SUMO tag cleaved (natural protein, budding yeast, UniProt P28495 1-268, looked up)
chain: MSSSKFEEVINKIINDSPPGELREVYDDLIKITSENSKNTILDAIENYNVQNCIPIEVNGNSVIISKYNKEGAKFFDPVNSVIFSVNHLERKGLDIEPYEFTHAKIEKGQLKELHDKLHEYLLQSFPGDVSFAVYPVPEEISKISIIIVSTKYNPNNFWNGHWRSSYIYDLETRELSGQISTQVHYYEDGNVSFQSGKDINQSNVDDVVCTIRDIETNFENDLDLSFFDLNEKQFKALRRRLPVTRSKINWGSAIGSYRLGKNAAEGK
